Reference: patent US20240125793A1

What was measured:
5c1-I-E^k (murine) [1] = molecular target: 5c1-I-E^k (murine) (UniProt P04224); assay: SPR (Biacore T100), refolded TCR over peptide-exchanged biotinylated I-Ek on SA chip, equilibrium
5c3-I-E^k (murine) = 5c3-I-E^k (murine) (UniProt P04224); assay: as above
[2] = molecular target: MCC-I-E^k (soluble I-Ek exchanged with the MCC peptide) (murine) (UniProt P04224); assay: as above
5c1-I-E^k (murine) [3] = molecular target: 5c1-I-E^k (murine) (UniProt P04224); assay: cell-based or functional assay
[4] = molecular target: MCC-I-E^k (soluble I-Ek exchanged with the MCC peptide) (murine) (UniProt P04224); assay: cell-based or functional assay

5cc7 TCR
Kd (5c1-I-E^k (murine) [1]): 115 µM
Kd (5c3-I-E^k (murine)): 62 µM
Kd [2]: 41 µM
signaling potency (EC50) (5c1-I-E^k (murine) [3]): 1.5 µM
signaling potency (EC50) [4]: 0.0084 µM
